According to patent publication US20020106690A1 (published 2002):

T1: GST-Ste20p FL (Saccharomyces cerevisiae (yeast), UniProt Q03497 1-939)
T1 construct: Purified on glutathione-Sepharose beads; also called GST fusion with full length Ste20p; not shown: glutathione S-transferase (GST), amino-terminal fusion partner
T1 sequence: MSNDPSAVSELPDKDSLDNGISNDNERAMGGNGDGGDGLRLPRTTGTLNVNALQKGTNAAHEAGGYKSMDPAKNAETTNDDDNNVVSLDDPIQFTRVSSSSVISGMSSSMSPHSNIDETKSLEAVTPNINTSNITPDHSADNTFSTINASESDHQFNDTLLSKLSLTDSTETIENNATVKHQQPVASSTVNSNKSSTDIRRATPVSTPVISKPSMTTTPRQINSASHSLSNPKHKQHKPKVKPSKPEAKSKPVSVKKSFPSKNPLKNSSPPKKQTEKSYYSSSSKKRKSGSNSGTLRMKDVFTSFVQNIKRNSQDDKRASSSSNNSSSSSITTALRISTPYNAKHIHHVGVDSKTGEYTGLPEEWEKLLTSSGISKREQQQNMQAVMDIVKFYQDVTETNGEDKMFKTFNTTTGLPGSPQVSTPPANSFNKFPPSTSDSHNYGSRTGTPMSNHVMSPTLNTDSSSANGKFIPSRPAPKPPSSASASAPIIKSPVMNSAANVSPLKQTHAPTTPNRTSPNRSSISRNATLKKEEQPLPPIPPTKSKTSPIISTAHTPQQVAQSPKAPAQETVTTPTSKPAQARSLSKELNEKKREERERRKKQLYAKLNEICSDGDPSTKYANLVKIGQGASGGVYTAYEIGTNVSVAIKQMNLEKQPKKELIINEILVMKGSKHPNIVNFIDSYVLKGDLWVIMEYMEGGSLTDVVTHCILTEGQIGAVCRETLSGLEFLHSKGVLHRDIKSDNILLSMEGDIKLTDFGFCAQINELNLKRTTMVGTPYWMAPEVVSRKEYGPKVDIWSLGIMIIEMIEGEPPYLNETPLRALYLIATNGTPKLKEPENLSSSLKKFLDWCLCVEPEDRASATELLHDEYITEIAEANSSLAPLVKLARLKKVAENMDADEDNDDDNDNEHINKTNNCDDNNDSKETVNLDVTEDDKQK

T2: Ste4p (Saccharomyces cerevisiae (yeast)) (UniProt P18851)
T2 sequence (35S-labelled methionine in the in vitro-translated form, looked up): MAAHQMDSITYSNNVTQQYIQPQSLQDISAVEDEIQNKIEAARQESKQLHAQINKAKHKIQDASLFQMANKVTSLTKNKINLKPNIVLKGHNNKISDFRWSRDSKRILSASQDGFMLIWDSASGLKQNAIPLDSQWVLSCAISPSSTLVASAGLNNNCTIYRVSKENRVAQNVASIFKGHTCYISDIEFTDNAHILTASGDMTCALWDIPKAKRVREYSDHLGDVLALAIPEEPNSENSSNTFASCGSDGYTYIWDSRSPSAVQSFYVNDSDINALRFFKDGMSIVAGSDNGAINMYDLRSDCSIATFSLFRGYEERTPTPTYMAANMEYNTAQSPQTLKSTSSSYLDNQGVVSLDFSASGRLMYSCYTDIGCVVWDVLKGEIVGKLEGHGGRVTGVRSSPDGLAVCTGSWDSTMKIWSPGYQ

T3: Ste4p, P18851
T3 chain: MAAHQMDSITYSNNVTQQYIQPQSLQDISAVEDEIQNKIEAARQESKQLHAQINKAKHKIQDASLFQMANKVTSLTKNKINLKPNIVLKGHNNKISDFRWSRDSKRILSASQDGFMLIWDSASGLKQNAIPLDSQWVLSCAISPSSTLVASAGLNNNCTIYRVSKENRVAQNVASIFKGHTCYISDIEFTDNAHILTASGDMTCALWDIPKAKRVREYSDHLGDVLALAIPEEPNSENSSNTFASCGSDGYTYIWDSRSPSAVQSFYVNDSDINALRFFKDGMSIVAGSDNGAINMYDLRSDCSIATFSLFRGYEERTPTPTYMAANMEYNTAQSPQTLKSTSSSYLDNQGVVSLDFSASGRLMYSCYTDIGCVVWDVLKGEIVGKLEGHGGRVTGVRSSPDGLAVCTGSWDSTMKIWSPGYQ


How the values were obtained:
GST-Ste20p FL = molecular target: T1, GST-Ste20p FL; assay: GST pull-down of in vitro-translated 35S-Ste4p mutant, with HA-Ste18p present
Source text: Interaction of Ste4p mutants with Ste20p and Ste5p. […] Relative amounts of the GST fusion proteins and of ³⁵S-Ste4p were quantified by densitometric evaluation of Western blots and autoradiographs, respectively. Data are given as percentage of binding of wild-type ³⁵S-Ste4p (mean values ±SD, n≧3).
The beads were then washed three times with PBS, separated by SDS-PAGE and analysed by autoradiography of Western blots. Results were confirmed in at least three independent experiments. Immunodetection and evaluation of immunoblots and radiographs were then performed as described above. Data obtained for ³⁵S-Ste4p were corrected for relative concentrations of the respective GST fusion proteins.

[1] = molecular target: T2, Ste4p (Saccharomyces cerevisiae (yeast)); assay: GST pull-down of in vitro-translated 35S-Ste4p with HA-Ste18p present; normalized against wild-type Ste20p 819-939
Ste4p, P18851 = molecular target: T3, Ste4p, P18851

Binder	binding result (GST-Ste20p FL)	FUS1::lacZ expression (Ste4p, P18851)	G1 arrest (Ste4p, P18851)	Mating efficiencies (%) (Ste4p, P18851)	Shmoo formation (Ste4p, P18851)	other results
Ste4p K55E mutant (other, Saccharomyces cerevisiae (yeast), UniProt P18851 1-423, looked up, 35S-labelled methionine, In vitro-translated, 35S-labelled; also called STE4^K55E; 35S-Ste4p K55E) MAAHQMDSITYSNNVTQQYIQPQSLQDISAVEDEIQNKIEAARQESKQLHAQINEAKHKIQDASLFQMANKVTSLTKNKINLKPNIVLKGHNNKISDFRWSRDSKRILSASQDGFMLIWDSASGLKQNAIPLDSQWVLSCAISPSSTLVASAGLNNNCTIYRVSKENRVAQNVASIFKGHTCYISDIEFTDNAHILTASGDMTCALWDIPKAKRVREYSDHLGDVLALAIPEEPNSENSSNTFASCGSDGYTYIWDSRSPSAVQSFYVNDSDINALRFFKDGMSIVAGSDNGAINMYDLRSDCSIATFSLFRGYEERTPTPTYMAANMEYNTAQSPQTLKSTSSSYLDNQGVVSLDFSASGRLMYSCYTDIGCVVWDVLKGEIVGKLEGHGGRVTGVRSSPDGLAVCTGSWDSTMKIWSPGYQ	no binding					
Ste4p D62N mutant (other, Saccharomyces cerevisiae (yeast), UniProt P18851 1-423, looked up, 35S-labelled methionine, In vitro-translated, 35S-labelled; also called STE4^D62N; 35S-Ste4p D62N) MAAHQMDSITYSNNVTQQYIQPQSLQDISAVEDEIQNKIEAARQESKQLHAQINKAKHKIQNASLFQMANKVTSLTKNKINLKPNIVLKGHNNKISDFRWSRDSKRILSASQDGFMLIWDSASGLKQNAIPLDSQWVLSCAISPSSTLVASAGLNNNCTIYRVSKENRVAQNVASIFKGHTCYISDIEFTDNAHILTASGDMTCALWDIPKAKRVREYSDHLGDVLALAIPEEPNSENSSNTFASCGSDGYTYIWDSRSPSAVQSFYVNDSDINALRFFKDGMSIVAGSDNGAINMYDLRSDCSIATFSLFRGYEERTPTPTYMAANMEYNTAQSPQTLKSTSSSYLDNQGVVSLDFSASGRLMYSCYTDIGCVVWDVLKGEIVGKLEGHGGRVTGVRSSPDGLAVCTGSWDSTMKIWSPGYQ	no binding					
GST fusion with the fragment from amino acid 819 to 939 of the Ste20p^S879A/S880A/P883A mutant (protein, not shown: a dimerising Fc or GST; large carriers; small tags and cut ends) PLRALYLIATNGTPKLKEPENLSSSLKKFLDWCLCVEPEDRASATELLHDEYITEIAEANAALAALVKLARLKKVAENMDADEDNDDDNDNEHINKTNNCDDNNDSKETVNLDVTEDDKQK						Binding to 35S-Ste4p (%) [1]: 15.2%
Ste20p^S879A/S880A/P883A (protein) MSNDPSAVSELPDKDSLDNGISNDNERAMGGNGDGGDGLRLPRTTGTLNVNALQKGTNAAHEAGGYKSMDPAKNAETTNDDDNNVVSLDDPIQFTRVSSSSVISGMSSSMSPHSNIDETKSLEAVTPNINTSNITPDHSADNTFSTINASESDHQFNDTLLSKLSLTDSTETIENNATVKHQQPVASSTVNSNKSSTDIRRATPVSTPVISKPSMTTTPRQINSASHSLSNPKHKQHKPKVKPSKPEAKSKPVSVKKSFPSKNPLKNSSPPKKQTEKSYYSSSSKKRKSGSNSGTLRMKDVFTSFVQNIKRNSQDDKRASSSSNNSSSSSITTALRISTPYNAKHIHHVGVDSKTGEYTGLPEEWEKLLTSSGISKREQQQNMQAVMDIVKFYQDVTETNGEDKMFKTFNTTTGLPGSPQVSTPPANSFNKFPPSTSDSHNYGSRTGTPMSNHVMSPTLNTDSSSANGKFIPSRPAPKPPSSASASAPIIKSPVMNSAANVSPLKQTHAPTTPNRTSPNRSSISRNATLKKEEQPLPPIPPTKSKTSPIISTAHTPQQVAQSPKAPAQETVTTPTSKPAQARSLSKELNEKKREERERRKKQLYAKLNEICSDGDPSTKYANLVKIGQGASGGVYTAYEIGTNVSVAIKQMNLEKQPKKELIINEILVMKGSKHPNIVNFIDSYVLKGDLWVIMEYMEGGSLTDVVTHCILTEGQIGAVCRETLSGLEFLHSKGVLHRDIKSDNILLSMEGDIKLTDFGFCAQINELNLKRTTMVGTPYWMAPEVVSRKEYGPKVDIWSLGIMIIEMIEGEPPYLNETPLRALYLIATNGTPKLKEPENLSSSLKKFLDWCLCVEPEDRASATELLHDEYITEIAEANAALAALVKLARLKKVAENMDADEDNDDDNDNEHINKTNNCDDNNDSKETVNLDVTEDDKQK		14	-	0.039	-	
Ste20p^CLA4 (protein) MSNDPSAVSELPDKDSLDNGISNDNERAMGGNGDGGDGLRLPRTTGTLNVNALQKGTNAAHEAGGYKSMDPAKNAETTNDDDNNVVSLDDPIQFTRVSSSSVISGMSSSMSPHSNIDETKSLEAVTPNINTSNITPDHSADNTFSTINASESDHQFNDTLLSKLSLTDSTETIENNATVKHQQPVASSTVNSNKSSTDIRRATPVSTPVISKPSMTTTPRQINSASHSLSNPKHKQHKPKVKPSKPEAKSKPVSVKKSFPSKNPLKNSSPPKKQTEKSYYSSSSKKRKSGSNSGTLRMKDVFTSFVQNIKRNSQDDKRASSSSNNSSSSSITTALRISTPYNAKHIHHVGVDSKTGEYTGLPEEWEKLLTSSGISKREQQQNMQAVMDIVKFYQDVTETNGEDKMFKTFNTTTGLPGSPQVSTPPANSFNKFPPSTSDSHNYGSRTGTPMSNHVMSPTLNTDSSSANGKFIPSRPAPKPPSSASASAPIIKSPVMNSAANVSPLKQTHAPTTPNRTSPNRSSISRNATLKKEEQPLPPIPPTKSKTSPIISTAHTPQQVAQSPKAPAQETVTTPTSKPAQARSLSKELNEKKREERERRKKQLYAKLNEICSDGDPSTKYANLVKIGQGASGGVYTAYEIGTNVSVAIKQMNLEKQPKKELIINEILVMKGSKHPNIVNFIDSYVLKGDLWVIMEYMEGGSLTDVVTHCILTEGQIGAVCRETLSGLEFLHSKGVLHRDIKSDNILLSMEGDIKLTDFGFCAQINELNLKRTTMVGTPYWMAPEVVSRKEYGPKVDIWSLGIMIIEMIEGEPPYLNETPLRALYLIATNGTPKLKEPENLSSSLKKFLDWCLCVEPEDRASATELLHDEYITEIAEANKDLTSLLEWARLKKVAENMDADEDNDDDNDNEHINKTNNCDDNNDSKETVNLDVTEDDKQK		11	-	0.016	-	
Ste20p^495-888 (protein) MNSAANVSPLKQTHAPTTPNRTSPNRSSISRNATLKKEEQPLPPIPPTKSKTSPIISTAHTPQQVAQSPKAPAQETVTTPTSKPAQARSLSKELNEKKREERERRKKQLYAKLNEICSDGDPSTKYANLVKIGQGASGGVYTAYEIGTNVSVAIKQMNLEKQPKKELIINEILVMKGSKHPNIVNFIDSYVLKGDLWVIMEYMEGGSLTDVVTHCILTEGQIGAVCRETLSGLEFLHSKGVLHRDIKSDNILLSMEGDIKLTDFGFCAQINELNLKRTTMVGTPYWMAPEVVSRKEYGPKVDIWSLGIMIIEMIEGEPPYLNETPLRALYLIATNGTPKLKEPENLSSSLKKFLDWCLCVEPEDRASATELLHDEYITEIAEANSSLAPLVKLA			+	75.2	+	FUS1::lacZ expression, Basal (Ste4p, P18851): 1.6; FUS1::lacZ expression, Induced (Ste4p, P18851): 148
